Experimental data: paper PMC4085236

Assays:
[1] = target: GST-Cul5(NTD)/HIS6-Rbx2/Cul(CTD) complex (mouse) (UniProt Q9D5V5); test: pull-down + SEC
[2] = target: Cullin5/Rbx1 complex (mouse | not stated) (UniProt Q9D5V5); test: SEC
Chain of Cullin5/Rbx1 complex (mouse | not stated) (Q9D5V5 1-384, chain 1 of 3): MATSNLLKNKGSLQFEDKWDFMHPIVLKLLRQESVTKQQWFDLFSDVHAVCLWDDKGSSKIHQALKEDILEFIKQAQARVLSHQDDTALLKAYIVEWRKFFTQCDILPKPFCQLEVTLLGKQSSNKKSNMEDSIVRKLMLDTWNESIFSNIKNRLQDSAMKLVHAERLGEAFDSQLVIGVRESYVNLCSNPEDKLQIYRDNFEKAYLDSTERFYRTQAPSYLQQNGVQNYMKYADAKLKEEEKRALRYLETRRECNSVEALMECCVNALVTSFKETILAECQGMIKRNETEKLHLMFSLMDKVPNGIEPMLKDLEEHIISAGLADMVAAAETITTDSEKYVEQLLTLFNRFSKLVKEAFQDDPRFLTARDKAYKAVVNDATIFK
Chain of Cullin5/Rbx1 complex (mouse | not stated) (Q9D5V5 385-780, chain 2 of 3): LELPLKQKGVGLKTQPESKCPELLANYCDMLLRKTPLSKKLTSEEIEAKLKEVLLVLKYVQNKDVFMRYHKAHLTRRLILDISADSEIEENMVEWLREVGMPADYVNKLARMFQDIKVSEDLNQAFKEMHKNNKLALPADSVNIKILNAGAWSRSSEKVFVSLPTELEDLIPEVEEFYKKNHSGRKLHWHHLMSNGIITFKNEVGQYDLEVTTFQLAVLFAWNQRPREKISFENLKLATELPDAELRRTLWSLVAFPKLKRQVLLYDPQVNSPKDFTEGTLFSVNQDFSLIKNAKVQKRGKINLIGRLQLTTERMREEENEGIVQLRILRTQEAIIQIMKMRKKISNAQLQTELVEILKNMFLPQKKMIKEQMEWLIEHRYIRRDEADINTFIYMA
Chain of Cullin5/Rbx1 complex (mouse | not stated) (P62878 whole entry, chain 3 of 3, further chain): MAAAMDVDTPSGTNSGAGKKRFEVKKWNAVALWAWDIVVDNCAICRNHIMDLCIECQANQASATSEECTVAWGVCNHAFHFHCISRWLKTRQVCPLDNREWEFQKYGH

Chain of Murine SOCS3/elonginsBC complex (O35718 22-225): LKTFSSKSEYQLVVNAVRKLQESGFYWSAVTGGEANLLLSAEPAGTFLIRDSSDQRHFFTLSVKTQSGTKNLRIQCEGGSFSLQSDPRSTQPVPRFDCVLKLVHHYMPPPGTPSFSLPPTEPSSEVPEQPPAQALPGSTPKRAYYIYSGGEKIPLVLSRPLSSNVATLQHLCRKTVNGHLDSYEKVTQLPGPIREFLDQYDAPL
Chain of Murine SOCS3/elonginsBC complex (P62869 whole entry): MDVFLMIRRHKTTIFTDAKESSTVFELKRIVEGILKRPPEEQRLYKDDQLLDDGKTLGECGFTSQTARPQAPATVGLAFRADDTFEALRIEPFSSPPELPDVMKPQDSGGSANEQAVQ
Chain of Murine SOCS3/elonginsBC complex (P83940 whole entry): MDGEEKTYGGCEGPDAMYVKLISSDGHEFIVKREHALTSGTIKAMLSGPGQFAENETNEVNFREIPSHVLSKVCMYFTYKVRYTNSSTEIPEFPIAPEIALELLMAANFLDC
Chain of GST-Cul5(NTD)/HIS6-Rbx2/Cul(CTD) complex (mouse) (Q9D5V5 1-384, chain 1 of 3): as the sequence (Q9D5V5 1-384, chain 1 of 3) above
Chain of GST-Cul5(NTD)/HIS6-Rbx2/Cul(CTD) complex (mouse) (Q9D5V5 385-780, chain 2 of 3): as the sequence (Q9D5V5 385-780, chain 2 of 3) above
Chain of GST-Cul5(NTD)/HIS6-Rbx2/Cul(CTD) complex (mouse) (Q9WTZ1 whole entry, chain 3 of 3, further chain): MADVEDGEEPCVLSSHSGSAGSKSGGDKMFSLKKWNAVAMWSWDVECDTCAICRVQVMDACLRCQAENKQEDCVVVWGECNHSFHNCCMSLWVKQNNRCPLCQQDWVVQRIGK

Murine SOCS3/elonginsBC complex (from UniProt O35718 22-225; P62869 1-118; P83940 1-112)
stoichiometry N [1]: 1
stoichiometry N [2]: 1
